Laboratory results published in patent US20150233949A1, “DETECTION AND MODULATION OF CYTOCHROME C ACETYLATION” (President and Fellows of Harvard College, priority 2008, published 2015).

System: cytochrome c
Assay: Tandem mass spectrometry of cytochrome c acetylation in transfected SH-SY5Y cells
Assay type: cell-based, mouse
Conditions: hSIRT3 cotransfected with cytochrome c in SH-SY5Y cells; FIG. 3
Protocol: SH-SY5Y cells were cultured in Dulbecco's Modified Eagle's Medium (DMEM) supplemented with 10% Fetal Calf Serum (FCS). SH-SY5Y cells were transfected with Lipofectamine 2000 (Invitrogen, Carlsbad, Calif.). Granule neuron cultures were prepared from cerebella of postnatal day 5 mouse pups. Neurons were placed on polyornithine-coated 96-well plates and grown in Basal Medium Eagle (BME) (Sigma, St. Louis, Mo.) supplemented with 10% calf serum (Hyclone Laboratories, Logan, Utah), 25 mM KCl, 2 mM glutamine, penicillin, and streptomycin. One day after cultures were prepared they were treated with 10 μM of the antimitotic agent cytosine-D-arabinofuranoside (Sigma, St. Louis, Mo.) to prevent the proliferation of non-neuronal cells.
A large-scale Flag-immunoprecipitation followed by elution with 3× Flag peptide was performed on cell extracts from 10×15 cm-plates of SH-SY5Y cells transfected with pcDNA-mouse cytochrome c-Flag+/−pcDNA-hSIRT3-HA. Purified proteins were separated by SDS-PAGE, and the band corresponding to cytochrome c was excised and analyzed by MS/MS.

B1: hSIRT3: human SIRT3 deacetylase expressed from transfected pcDNA-hSIRT3-HA vector (protein)
chain: MAFWGWRAAAALRLWGRVVERVEAGGGVGPFQACGCRLVLGGRDDVSAGLRGSHGARGEPLDPARPLQRPPRPEVPRAFRRQPRAAAPSFFFSSIKGGRRSISFSVGASSVVGSGGSSDKGKLSLQDVAELIRARACQRVVVMVGAGISTPSGIPDFRSPGSGLYSNLQQYDLPYPEAIFELPFFFHNPKPFFTLAKELYPGNYKPNVTHYFLRLLHDKGLLLRLYTQNIDGLERVSGIPASKLVEAHGTFASATCTVCQRPFPGEDIRADVMADRVPRCPVCTGVVKPDIVFFGEPLPQRFLLHVVDFPMADLLLILGTSLEVEPFASLTEAVRSSVPRLLINRDLVGPLAWHPRSRDVAQLGDVVHGVESLVELLGWTEEMRDLVQRETGKLDGPDK
modifications: left off: small tags and cut ends
notes: human SIRT3 deacetylase expressed from transfected pcDNA-hSIRT3-HA vector
acetylation of residues K40 and K74 of cytochrome c: no longer detected
